Data on one molecule can be found in patent US7063845 (KIRIN BEER, dated 2006).

This test concerns the target T1, human CD40 on the cell surface (EL-4 cells transfected with full length human CD40 cDNA); Ramos B cells; human … (human, UniProt P25942 21-277).
T1 construct: whole, on cells; Ramos and peripheral B cells carry their own CD40; also called cell surface human CD40
The experiment in a line: FACS on EL-4 cells expressing human CD40.

T1 sequence (P25942 21-277): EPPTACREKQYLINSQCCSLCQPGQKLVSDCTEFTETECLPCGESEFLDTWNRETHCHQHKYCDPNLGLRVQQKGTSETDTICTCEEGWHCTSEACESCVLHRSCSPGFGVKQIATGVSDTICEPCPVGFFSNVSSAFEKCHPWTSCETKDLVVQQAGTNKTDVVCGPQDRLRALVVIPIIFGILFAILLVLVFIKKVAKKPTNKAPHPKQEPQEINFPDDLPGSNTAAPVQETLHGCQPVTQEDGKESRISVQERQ

B1: recombinant human anti-CD40 antibody F5-77 (antibody, V domains shown)
VH: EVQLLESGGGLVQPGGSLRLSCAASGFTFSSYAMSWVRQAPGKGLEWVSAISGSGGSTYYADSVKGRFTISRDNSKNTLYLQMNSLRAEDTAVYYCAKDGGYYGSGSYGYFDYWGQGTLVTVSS
VL: DIQMTQSPSSVSGSVGDRVTITCRASQGISSWLAWYQQKPGKAPKLLIYAGSSLQSGVPSRFSGSGFGTDFTLTISSLQPEDFATYYCQQASSFPRTFGQGTKVEIK
notes: also called F5-77 (K1H1); printed F5-17 in claim 19
For the molecule B1, the binding result was “binds”.
